Measured values published in the DeepSol protein solubility set.

Experiment: soluble on expression in E. coli; label from the status in PepcDB or PDB records

Sequence | soluble on expression in E. coli
MTLEWEEFLDPYIQAVGELKIKLRGIRKQYRKQNKHSPIEFVTGRVKPIESIKEKMARRGITYATLEHDLQDIAGLRVMVQFVDDVKEVVDILHKRQDMRIIQERDYITHRKASGYRSYHVVVEYTVDTINGAKTILAEIQIRTLAMNFWATIEHSLNYKYQGDFPDEIKKRLEITARIAHQLDEEMGEIRDDIQEAQALFDPLSRKLNDGVGNSDDTDEEYR | soluble
MGSDKIHHHHHHMDTVNYTHHLSTFVDVVRAGSFSAVARRQGMKPSSIARKIDMLEDYFGAALFVRSTRALMLTDVGEVLVARAEVILNELNAMRVEIKSIKDNLDGPLRISCLPTFGKLHILPWLPKLRENFPRMTVELDLTERIANPSIERLDAVLRIGPLNDSGLYAKTIGVQRWLVCASPAYVGRSGKPAGWSQLAGHAIVDKLHDPAGICWHGALDPQQYSAMSIGFRCNDFDGLRQAALGGLGLAYLPDWVALPDITAGRLVKLFDDSKRGDEPISLLRASSKPSARLQIFHDALLDHLRKFSETGYGVE | not soluble
MAGDPMVMRLSKIYGKQIYTTKGKYVGYVDEVIIDIDEGRGEVVLLALPGERVGVPYERVTAVGDIILVEATTEKKRISQEGLEHHHHHH | not soluble
MSKETGKMAEEPPGSSSSAKPVTSSKKPPPNDVTTTTNTTKTTNSNQQEDMYLNGNNPYYGGFYANNRYLFPSTSSQATCIGTSSEDSPPPPPPSANGSIHRKHHQNANHHQNSRHAISDTVAVAGDDLSNVPAAVVIQLEKANRTIASQTLEIERLKSYQNQNLETHLLKKQIHDLEKEVRSGRSRFLEQQELLAEMSREMDILLREKLEMQRNSQELEKKYKKAKFASRELAKILENDLCGTPTTSNLKNFESDDEFFEEKSLFEKSRALSRQQIPNDLLEKTRKIDFSEAKNAKNQDLIDKLIDENENLQISLNREQKMTSSLQDDLEKSRRMVIDRDEHIEELKMKLGKAETKASQCESDLTQTSSDLAMERLRCEVLTGELHEIDGIFRNTQSTIQAYADDNDRLEDQCRQAQRTILTLNSKL | not soluble
MGSDKIHHHHHHMPLKSSYSDQLKKTDQSLIALLSDRISLLASEQPSLDEQLASVAPLLAQAGIPESVWAGVVNSCHASLTPKSAINHASPRQVTIIGGRGRMGRLFQEQLSLVGHNVSILEHEDWEYAEQLLSQAELVLVSVPIEHTVDVIKRAAKYLASNTALCDITSIKTQPTQAMLEHHCGPVMGLHPMFGPNIKSFLGQKVVVCPGRNDDSFQWLLDFLKSKGGELIVCTPEEHDRMMVIIQATQHFCRFSLGVFLAQARVEIEQSLTMSTPNYRQEIDIVKRLFAQNPNLCVDIMLATEERCNAISFLANTYSRLARLVARKDREALIKEFENTQSFFEGKINSFLQPLNTTALKRDFKPQNIGI | not soluble
MGHHHHHHSHMQHPQTHRQLKETLYETIIGYFDKGKMWEEAISLCKELAEQYEMEIFDYELLSQNLIQQAKFYESIMKILRPKPDYFAVGYYGQGFPSFLRNKVFIYRGKEYERREDFQMQLMTQFPNAEKMNTTSAPGDDVKNAPGQYIQCFTVQPVLDEHPRFKNKPVPDQIINFYKSNYVQRFHYSRPVRRGTVDPENEFASMWIERTSFVTAYKLPGILRWFEVVHMSQTTISPLENAIETMSTANEKILMMINQYQSDETLPINPLSMLLNGIVDPAVMGGFAKYEKAFFTEEYVRDHPEDQDKLTHLKDLIAWQIPFLGAGIKIHEKRVSDNLRPFHDRMEECFKNLKMKVEKEYGVREMPDFDD | soluble
MKATSEELAIFVAVVESGSFSRAAEQLGQANSAVSRAVKKLEMKLGVSLLNRTTRQLSLTEEGERYFRRVQQILQEMAAAETEIMESRNTPRGLLRIDAATPVMLHFLMPLIKPFRERYPEITLSLVSSETFINLIERKVDVAIRAGTLTDSSLRARPLFTSYRKIIASPDYIARFGKPETVEELKRHLCLGFSEPVSLNTWPIACSDGQLHEIKCGISSNSGETLKQLCLNGNGIACLSDYMIDKEIARGELVELLADKRLPVEMPFSAVYYSDRAVSTRIRAFIDFLSEYIRTAPAGAVKEG | not soluble
AQYKDDPILKAATIVSAPLDLAACANRIEQGFSKVYRRYLLSSLKRNALQKHHLLHGELALSYNSIKRVTRLYEFDDLITAPLHGFKDAQDYYDQCSGLSKLLQITLPTLIIHAKDDPFMTEEVIPKFVLPDNIDYRLFEHGGHVGFLTGT | not soluble
MGSDKIHHHHHHMRILSGMRPTGKLHIGHLVGALENWVKLQEEGNECFYFVADWHALTTHYDDVSKLKEYTRDLVRGFLACGIDPEKSVIFVQSGVKEHAELALLFSMIVSVSRLERVPTYKEIKSELNYKDLSTAGFLIYPVLQAADILIYKAEGVPVGEDQVYHIELTREIARRFNYLYDEVFPEPEAILSRVPKLPGTDGRKMSKSYGNIINLEISEKELEQTILRMMTDPARVRRSDPGNPENCPVWKYHQAFDISEEESKWVWEGCTTASIGCVDCKKLLLKNMKRKLAPIWENFRKIDEDPHYVDDVIMEGTKKAREVAAKTMEEVRRAMNLMF | soluble
MIQLNLPPYEHRIHQEDESMFIFDSIRRRYVALTPEEWVRQHFVHYLTDVLGYPADLIRNEAQLRIDRRRKRCDTVVYDTNLRPIVLCEYKAPTVSLTQKTMDQILCYNFIFRVPLLLLSNGLQHAACLVDYEQSGYVFLPEIPSYEELTTIIQSNQ | not soluble
MGSDKIHHHHHHMDVLKEVLSLDQDKFDQLKETSRDKTNETDDPFENYLKDCKFKAPSNKDQSPFAKLKSLQETHSNNEAAINIIIPQLIDYLTEFTNRLSNYTQDLDFIKKKSNELQSLLEYNSTKLAHISPMVNDLMIPPELIDDIIKGKINESWQDNITFIADKEEIYNKYRSNNLDQDNKDAENSAMLAPKDFDKLCQLLDILKNVILERSKRLIISKIKTLRSHNPVPSQRIQNKLLKVQKIFPFIRDNNLSLALELRQAYCYTMKWYYREYFSRYIRSLTILQFQQIDSQFALGNGLSTTSVSGFNNSPSLFFSNYLTTSASNAFYNKLPVTDEKIDKYFQIKKRLNILTQEDNTVMVSQIAENNTTKNYIEIGFKNLNLAILDNCTVEYHFLKDFFAMNGDNFEEINGLLEQIFQPTFDEATTYTQQLIQYNYDIFGVLISIRVANQLQFESERRGIPSMFDSFLNGQLIQLWPRFQQLVDFQCESLRKAAITTNVAKYAGNSSTSNSSPLTSPHELTVQFGKFLSSFLTLAITHKQSIDERSEPLYNSIIRLRNDFETVMTKCSKKTKSPERFLATNYMYLYNNLQQLHLHLNINDSDAQNYNFDSAENVGTKVANDDDNDSSVPLIIRETENHFKTLVEAFTRN | not soluble
MSDDEIGDGARAFNQLIQALSLSIETETAVRTFTEMLVSELDVHQLTEQALALLLQHTGADGGAILIEVDGEIRVAASQGIGSAHTLANNDRVRSALRTERRHRVQLPEDLVVDGMLAQFRPKEVIIDPVRHKEVVLGAVVLASGQGFSAEDRNRLDVFERGLALALHNALLYDRLQTLAALDPLTGALEHHHHHH | soluble
MNQFYKRHFLRLLDFTPAEIIALLDLATELKKDKKSGCEQQKLVGKNIALIFEKDSTRTRCSFEVAAYDQGARVTYLGPGGSQIGHKESIKDTARVLGRMYDGIQYRGYGQRVVETLAEFAGVPVWNGLTDEFHPTQLLADLLTMREHLPNKSLNKMTLAYLGDTRNNMGNSLLEAAALVGMDLRLVAPKACWPEEAFVISCQALAQKTGGKITLTEDIAEGVNGADFLYTDVWVSMGEPKEVWQERINLLKPYQVNMRVLTLTGNPQVKFLHCLPAFHDDQTTIGKQMAEQYDLPGGMEVTEEVFESAHSIVFDQAENRLHTIKAVMVATMSKI | not soluble
MSAEQDKEPIALKRVRGGDSGLDGLGGPNIQLGSPDKKKRKANTQGSSFPPLSEYAPPPNPNSDHLVAANPFDDSYNTISYKPLPSSNPYLGPGYPGFGGYSTFRMPPHVPPRMSSPYCGPYSLRNQPHPFPQNPLGMGFNRPHAFNFGPHDNSNFGNPPYNNVLTQDINMPGQHFRQGSAENFSQIPPQNVGQVSNPDLASNFAPGNNSNFTSPLETNHSFIPPPNAFGQAKAPLPKQDFTQGATKTPNQNSSTHPPHLNMEDPVNQSNVELKNVNRNNVVQENSRSGSAEATNNHANGTQNKPRQPRGAADLCTPDKSRKFSLLPSRHGHSSSDPVYPCGICTNEVNDDQDAILCEASCQKWFHRICTGMTETAYGLLTAEASAVWGCDTCMADKDVQLMRTREAFGPPAVGGDA | soluble
GSTIAPEEHYTPEEASSREETAWDTAAEEVELLAADGAVHNQELFLECTTSPLIFASAMLNFGVHQILDTLCELAPQPHGRESDERAVEAATGAFDSSREVTDEFSGVVFKVQAGMDKNHRDSLAFMRVVSGEFDRGMQVTHAQSGRSFSTKYALTVFGRTRSTVESAFPGDIVGLVNAGSLAPGDTIFAGRKVQYPPMPQFAPEHFRTLRAKSLGKYKQFRKALDQLAAEGVVQILKNDARGDAAPVMAAVGPMQFEVMMARMQNEYNVETVADPIPYSVARRTTPETATELAKQRGVEIFTRTDGELVALFGDKWKLAFIEKEHPEFELLPMVAD | not soluble
MYLSHFGFRVQPFSLTPNTEMFLGLVPHYEAIQTILAAVQMGEGVIKVTGEVGTGKTMVCRKLIEQIESQVELVYLPNPVLNGEQLQFAVARELGIDNDDPLRIVSLIQEHLIRVHSTGKKTVLIVDEAQALSPEALETLRLFGNLETEQDKLIQLVLFGQPELDERLSMHELRQFRQRITFSCGLRPLSVDEGVAYINNRLDKAGNGAHIFSIEQKKAIWRSAMGIPRLINQISHKALLAAFNDRCTLLKNHHVYAAMHDTFDARKPKFKTPVFWGWSQPLEHHHHHH | not soluble
MSLANRMPTPGSLAAFLKDRRTRLDPASFGFSGRRRTPGLRREEVAQRANISPTWYTWLEQGRGGAPSADVLNRIAKGLLLTEAEREHLFMLGLGRPPEVRYRGDEGVSPRLQRLIDTLEASPALVKTATWDVVAWNRAAEIVLTDYGTIPAGRRNILRFMFLTPHIRAKQHDWENLARFVVGAFRADAARAGAVSEVTQLVDELCSGSAEFATLWQENDVLAHGDGTKRLKHPELGDIELEYSSFAVDGRPDLNLTVYNPVDSEVADRIRSLAKRLREGHHHHHH | soluble
MTETSTVSIASSAIVCVEADIKGEVIIKEGCVVHPFVVFDATKGPIYVGENNIFEEYAVIRNNSDGQPMIIGDWNIFQVHSKSSAKYVGSRNVIGVHAVLEDGCSVSDDCSVGAKCTVFSHQNLEPSVSVYAATNLSRTTKTPNMTSPHQIEFLRKILPSYHHLYGKKKAVATASASAAQ | not soluble
AMLAELTHRCPLACPYCSNPLALHGKARELDTQTWARAFDEAAALGVLQLHLSGGEPASRPDLVELTRAAHEAGLYTNLITSGIGLTPARLDALEAVGLDHIQLSLQGTTPDLADRIGGYKGGFARKMAVAAEIKARGIPLTLNAVMHRHNLDDLERTIELAIELGARRLEVACVQFHGWATRNRAALLPSRAQTEAAKRIVAEAEARLRGTLAFDFVPPDYYADYPKACMGGWGSAGLNIAPDGTVLPCHAA | not soluble
MNSAPLLVDPSTQSATVVAETQPFGDRCMLESLIRRPFCMNPQLQTHPYDRQPTTAPRLQMMPRRDQTQNPVIAELMSTVTRVRDRKRQRDEEAMYPRRSVGLQTDTEDVSEVLDGGTRISDMKRVRREELLDQSSLDGITFETSGTNTSDEPHSQIITSNSSSLPSTSASSSSDRPRAMRSNQEMRQARRARRQRQTQHESQRMQLEHRLQQITGPVPGSEHNCMTGCPHLHQQQQQQHQQPLLHIQLNPIPPQPQTGPNSVSPTIAPGAMLRAHPLASTFPYFSLPLTQNYPVMMVLPMAAVAQQHAAAAAAVVAVAAAAAVPQPPPPPPQPTLHAPVPIRPQNNPYNLYAFRNSPINVHAPGYVGEYVELFRSQQFLFPTSERYGIDRHHMFGGLDLDLPVGASKVEIDTFTIPTVYAKKTDGEEDEDTCTVCLSSFEDGESIQKLRCNHVFHPECIYKWLDINKRCPMCREEIDRPESLRTQPGL | not soluble
